Laboratory results published in US6506889 (UNIVERSITY TECHNOLOGY, dated 2003).

B1: C. elegans SUR-8 fused to the GAL4 activation domain (other, not shown: large carriers)
chain: METSKEFEFRPAKETSRSKSPGGIVGRLSNFARNKARHSLSEKGSNSVGGSGGAGFDKPRKDLLKEFHKCKEAQDQRLDLSSIEITSIPSPIKELTQLTELFLYKNKLTCLPTEIGQLVNLKKLGLSENALTSLPDSLASLESLETLDLRHNKLTEVPSVIYKIGSLETLWLRYNRIVAVDEQIGNLSKLKMLDVRENKIRELPSAIGKLTSLVVCLVSYNHLTRVPEEIGDCHSLTQLDLQHNDLSELPYSIGKLVNLVRIGIRYNKIRCIPSELESCQQLEEFIVESNHLQLLPPNLLTMLPKIHTVNLSRNELTAFPAGGPQQFVSTVTINMEHNQISKIPIGIFSKATRLTKLNLKENELVSLPLDMGSWTSITELNLSTNQLKVLPEDIEKLVNLEILVLSNNQLKKLPNQIGNLNKLRELDLEENELETVPTEIGFLQHLTKLWVQSNKILTLPRSIGNLCSLQDLRLGENNLTAIPEEIGHLDSLKSLYLNDNSSLHNLPFELALCQSLEIMSIENSPLSQIPPEITAGGPSLVIQYLKMQGPYRGVVMNSQ
notes: Yeast two-hybrid construct: 1.7 kb sur-8 cDNA cloned in-frame into pACT2; also called Ce SUR-8; wild-type SUR-8

Experiments:
[1] = molecular target: T1, wild type LIN-45 Raf (yeast two-hybrid fusion) (C. elegans, UniProt Q07292 1-813); assay: yeast two-hybrid
T1 construct: Tested against SUR-8 and against LET-60 Ras and its mutants; The constructs for the two tests may differ; not shown: two-hybrid fusion partner
T1 sequence (looked up): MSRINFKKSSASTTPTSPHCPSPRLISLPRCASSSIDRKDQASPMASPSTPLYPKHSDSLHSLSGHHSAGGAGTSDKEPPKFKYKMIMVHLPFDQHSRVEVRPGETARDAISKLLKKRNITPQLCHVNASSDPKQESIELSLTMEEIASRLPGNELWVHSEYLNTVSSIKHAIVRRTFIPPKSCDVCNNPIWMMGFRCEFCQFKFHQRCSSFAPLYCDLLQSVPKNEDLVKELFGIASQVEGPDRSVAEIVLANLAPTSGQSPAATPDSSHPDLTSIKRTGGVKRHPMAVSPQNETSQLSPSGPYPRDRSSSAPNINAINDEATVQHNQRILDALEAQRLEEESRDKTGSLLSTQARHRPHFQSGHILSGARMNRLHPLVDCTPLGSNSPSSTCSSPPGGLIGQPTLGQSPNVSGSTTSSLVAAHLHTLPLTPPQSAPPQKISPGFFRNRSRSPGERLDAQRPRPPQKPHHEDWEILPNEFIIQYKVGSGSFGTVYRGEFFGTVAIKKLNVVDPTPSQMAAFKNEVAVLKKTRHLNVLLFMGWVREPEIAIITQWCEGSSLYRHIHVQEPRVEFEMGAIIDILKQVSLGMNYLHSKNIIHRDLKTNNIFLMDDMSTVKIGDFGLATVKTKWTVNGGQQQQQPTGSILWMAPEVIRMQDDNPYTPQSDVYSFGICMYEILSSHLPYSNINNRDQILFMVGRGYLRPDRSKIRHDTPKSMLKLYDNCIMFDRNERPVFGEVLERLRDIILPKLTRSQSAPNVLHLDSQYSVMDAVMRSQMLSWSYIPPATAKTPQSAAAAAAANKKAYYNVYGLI

[2] = molecular target: B1; assay: yeast two-hybrid, His and LacZ reporters
[3] = molecular target: T2, C. elegans SUR-8 ku242 C233Y (yeast two-hybrid fusion) (C. elegans, UniProt Q22875 1-559); assay: yeast two-hybrid
T2 sequence: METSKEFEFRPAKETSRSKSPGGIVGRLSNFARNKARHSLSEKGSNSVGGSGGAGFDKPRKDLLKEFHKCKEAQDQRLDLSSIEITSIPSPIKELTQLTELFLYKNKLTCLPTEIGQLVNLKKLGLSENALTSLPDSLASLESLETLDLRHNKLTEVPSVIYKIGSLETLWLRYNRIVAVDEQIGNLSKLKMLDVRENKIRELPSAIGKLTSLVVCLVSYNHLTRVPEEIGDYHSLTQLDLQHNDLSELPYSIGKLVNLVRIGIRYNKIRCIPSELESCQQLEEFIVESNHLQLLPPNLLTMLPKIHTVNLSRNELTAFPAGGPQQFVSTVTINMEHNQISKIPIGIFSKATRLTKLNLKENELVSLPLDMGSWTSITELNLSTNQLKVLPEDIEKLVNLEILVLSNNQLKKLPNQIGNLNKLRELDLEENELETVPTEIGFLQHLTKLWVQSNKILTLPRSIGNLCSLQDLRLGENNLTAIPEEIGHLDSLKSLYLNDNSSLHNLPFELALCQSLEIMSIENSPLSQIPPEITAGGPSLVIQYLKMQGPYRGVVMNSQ

[4] = molecular target: T3, C. elegans SUR-8 deletion mutant lacking the N-terminal 88 amino acid non-LRR region (C. elegans, UniProt Q22875 89-559); assay: yeast two-hybrid
T3 construct: Range 89-559 is worked out from 'deletion of the N-terminal 88 amino acid' and the printed length of 559
T3 sequence: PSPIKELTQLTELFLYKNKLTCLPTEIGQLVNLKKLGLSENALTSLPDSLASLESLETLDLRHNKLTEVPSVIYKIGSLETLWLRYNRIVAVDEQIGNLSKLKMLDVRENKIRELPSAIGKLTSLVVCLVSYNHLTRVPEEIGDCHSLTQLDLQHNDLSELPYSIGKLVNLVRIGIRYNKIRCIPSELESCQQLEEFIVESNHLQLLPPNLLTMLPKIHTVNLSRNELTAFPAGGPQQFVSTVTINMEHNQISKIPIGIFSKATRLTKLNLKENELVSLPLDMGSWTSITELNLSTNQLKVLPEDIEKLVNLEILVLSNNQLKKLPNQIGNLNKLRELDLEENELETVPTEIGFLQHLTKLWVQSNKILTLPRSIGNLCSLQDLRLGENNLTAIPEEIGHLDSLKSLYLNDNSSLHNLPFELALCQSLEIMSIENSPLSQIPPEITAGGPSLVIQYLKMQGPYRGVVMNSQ

B1: no binding [1].

B2: MEK-2 MEK (yeast two-hybrid fusion) (enzyme, C. elegans, UniProt Q10664 1-387, looked up)
chain: MSSGKRRNPLGLSLPPTVNEQSESGEATAEEATATVPLEEQLKKLGLTEPQTQRLSEFLQVKEGIKELSEDMLQTEGELGHGNGGVVNKCVHRKTGVIMARKLVHLEIKPSVRQQIVKELAVLHKCNSPFIVGFYGAFVDNNDISICMEYMDGLSLDIVLKKVGRLPEKFVGRISVAVVRGLTYLKDEIKILHRDVKPSNMLVNSNGEIKLCDFGVSGMLIDSMANSFVGTRSYMAPERLTGSHYTISSDIWSFGLSLVELLIGRYPVPAPSQAEYATMFNVAENEIELADSLEEPNYHPPSNPASMAIFEMLDYIVNGPPPTLPKRFFTDEVIGFVSKCLRKLPSERATLKSLTADVFFTQYADHDDQGEFAVFVKGTINLPKLNP
notes: not shown: two-hybrid fusion partner
B2: no binding [2].

B3: wild type LET-60 Ras fused to the GAL4 DNA binding domain (enzyme, UniProt P04386 1-147, looked up)
chain: MKLLSSIEQACDICRLKKLKCSKEKPKCAKCLKNNWECRYSPKTKRSPLTRAHLTEVESRLERLEQLFLLIFPREDLDMILKMDSLQDIKALLTGLFVQDNVNKDAVTDRLASVETDMPLTLRQHRISATSSSEESSNKGQRQLTVSMTEYKLVVVGDGGVGKSALTIQLIQNHFVEEYDPTIEDSYRKQVVIDGETCLLDILDTAGQEEYSAMRDQYMRTGEGFLLVFAVNEAKSFENVANYREQIRRVKDSDDVPMVLVGNKCDLSSRSVDFRTVSETAKGYGIPNVDTSAKTRMGVDEAFYTLVREIRKHRERHDNNKPQKKKKCQIM
B3: no binding [3]; no binding [4].

B4: MPK-1 MAP kinase (yeast two-hybrid fusion) (enzyme, C. elegans, UniProt P39745-2 1-376, looked up)
chain: MADGEAVISTVNNVEEVHGQLFEVAPRYVNLSYIGEGAYGMVASALDTITRDRVAIKKISPFEHQTFCQRTLREIKILNRFKHENIINIQEIIRSETVDSLKDIYIVQCLMETDLYKLLKTQKLSNDHVCYFLYQILRGLKYIHSANVLHRDLKPSNLLLNTTCDLKICDFGLARVTDPQTDHTGFLTEYVATRWYRAPEIMLNSKGYTKSIDVWSVGCILAEMLSNRPLFPGKHYLDQLNLILAVVGSPSNADLQCIINDKARSYLISLPHKPKQPWARLYPGADPRALDLLDKMLTFNPHNRIDIEQALAHPYLEQYYDPGDEPVCEEPFTLEMEFDDLPKEKLKELIWEEAEAHHRRMEAEAAARNNGGQNPV
notes: as for B2
B4: no binding [2].
